These results are taken from patent publication US20230243823, “BIOMARKER SENSOR-BASED DETECTION OF DISEASE-SPECIFIC BIOMARKERS” (FORSCHUNGSZENTRUM JÜLICH GMBH, published 2023).

In the series the target is lactate dehydrogenase (PfLDH) (Plasmodium falciparum, UniProt Q76NM3 Q76NM3:1-316). In words: sandwich plasmon-enhanced fluorescence apta-immunosensor; PfLDH captured by anti-pLDH on AuNPs from diluted human blood; 0.1 uM aptamer in 10 mM PBS with 1 mM MgCl2 pH 7.1; signal orders of magnitude above PvLDH. Particulars: tags: obtained by bacterial expression; chain copies: 4. Here is the method: Uninfected human blood was diluted 1:100 in 25 mM Tris buffer to reduce sample turbidity. The desired amount of Plasmodium falciparum lactate dehydrogenase (P<DH) was added to 1 ml of a diluted solution of the sample to obtain analyte concentrations ranging from 1 fM to 1 μm (based on the undiluted blood). The functionalised substrates were incubated with 1 ml of contaminated blood solution for 2 hours at room temperature.
The specificity of the apta immunosensor was tested against lactate dehydrogenase of Plasmodium vivax (P<LDH), which is 90% identical to P<LDH. The P<LDH was added to uninfected human blood (diluted 1:100 in 1 mL 25 mM Tris buffer) to obtain the highest analyte concentration tested in the calibration curve (1 μM based on undiluted whole blood).

In the case of CTGGGCGGTAGAACCATAGTGACCCAGCCGTCTAC (ssDNA) [malaria 2008s aptamer], the binding result is “binds”.
